B1: Long arms of the bivalent protein 1 (Caenorhabditis elegans), Q17604 (parent)
chain: MVSHKKNDRPRPLWILKIHKRLSLFEFKRYATGIGKDDGQDISWVLKGNAKNNVYQVTVETMENCETDECKKVIWVPDELAESTGTMFEDFKEDQPQESVSSISNNEANWGSSVNELDENYEKMQKEETFDPYDSDSDTSEDSDFDEDFEDSDKTMCSGQS

Variants of: B1
Conditions: with glc7b_caeel gsp-2, P48727
glc7b_caeel gsp-2, P48727, sequence (P48727 whole entry): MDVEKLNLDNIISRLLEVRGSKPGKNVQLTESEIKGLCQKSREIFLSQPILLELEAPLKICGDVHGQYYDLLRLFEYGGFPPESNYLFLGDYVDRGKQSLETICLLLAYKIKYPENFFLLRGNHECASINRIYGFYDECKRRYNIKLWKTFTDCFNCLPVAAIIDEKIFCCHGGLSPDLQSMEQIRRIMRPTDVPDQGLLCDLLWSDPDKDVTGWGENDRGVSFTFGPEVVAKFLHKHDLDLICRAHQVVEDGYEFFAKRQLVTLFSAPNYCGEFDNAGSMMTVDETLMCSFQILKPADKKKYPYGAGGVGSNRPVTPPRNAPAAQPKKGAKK

effect of a mutation on the interaction	Variant
increasing interaction strength	MVSHKKNDRPRPLWILKIHKRLSLFEFKRYATGIGKDDGQDISWVLKGNAKNNVYQVTVETMENCETDECKKAIAVPDELAESTGTMFEDFKEDQPQESVSSISNNEANWGSSVNELDENYEKMQKEETFDPYDSDSDTSEDSDFDEDFEDSDKTMCSGQS [V73A;W75A]

Variants of: B1
Conditions: with glc7a_caeel gsp-1, Q27497
glc7a_caeel gsp-1, Q27497, sequence (Q27497 whole entry): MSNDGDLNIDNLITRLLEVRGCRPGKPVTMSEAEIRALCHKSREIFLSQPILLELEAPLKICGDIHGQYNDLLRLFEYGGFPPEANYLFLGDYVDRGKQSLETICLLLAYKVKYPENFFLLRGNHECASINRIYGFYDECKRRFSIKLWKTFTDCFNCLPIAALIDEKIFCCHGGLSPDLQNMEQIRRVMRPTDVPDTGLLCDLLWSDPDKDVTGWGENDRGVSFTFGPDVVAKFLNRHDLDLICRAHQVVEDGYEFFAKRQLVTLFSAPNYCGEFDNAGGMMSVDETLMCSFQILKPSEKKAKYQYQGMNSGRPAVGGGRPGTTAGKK

effect of a mutation on the interaction	Variant
decreasing interaction strength	MVSHKKNDRPRPLWILKIHKRLSLFEFKRYATGIGKDDGQDISWVLKGNAKNNVYQVTVETMENCETDECKKAIAVPDELAESTGTMFEDFKEDQPQESVSSISNNEANWGSSVNELDENYEKMQKEETFDPYDSDSDTSEDSDFDEDFEDSDKTMCSGQS [V73A;W75A]
